From PMC11281638

Molecular target: Sso7d-IN (full-length HIV-1 integrase fused to Sso7d) (not stated | HIV-1)
Experiment: semi-quantitative SDS-PAGE (Coomassie) of the purified complex

| Substance | stoichiometry N (CTD per full-length IN) | stoichiometry N (IBD per full-length IN) |
| --- | --- | --- |
| IN-CTD (HIV-1 integrase residues 185-288), His-tagged (from UniProt P12497 186-289) (domain or fragment) | 0.3 |  |
| LEDGF-IBD (lens epithelium-derived growth factor IN-binding domain, residues 307-460), His-tagged (from UniProt O75475 307-460) (domain or fragment) |  | 1 |
